The target of the experiment is anti-HRP antibody. As to the kind of experiment: release of labelled peptide L1 from anti-HRP antibody in solution, HRP concentration varied; released peptide separated and read by fluorescence.

Consider “HRP (from UniProt P00433 31-338) (enzyme)”, for which the EC50 (read off the curve) – broadly, the concentration needed to bring the measured effect to its halfway point – amounted to 0.9 µM.

The record behind these values is patent US20230073007A1, “SWITCHING BINDER, PREPARATION METHOD THEREFOR, AND PHARMACEUTICAL COMPOSITION, ASSAY KIT, AND ANTIGEN AND ANTIBODY ASSAY METHOD, EACH USING SAME” (OPTOLANE TECHNOLOGIES INC., priority 2019, published 2023).
